In publication doi:10.1101/492215:

Target: HTT^1-3144 Q23, C-terminally FLAG-tagged (human)
Experiment: SEC-MALS

Substance: HTT^1-3144 Q23, C-terminally FLAG-tagged (natural protein)
- stoichiometry N: 2
